Source: patent US20170174777A1 (PROTHENA BIOSCIENCE, published 2017)

Assays:
[1] = target: T1, wild-type human alpha-synuclein (human, UniProt P37840 1-140); assay: ELISA on alpha-synuclein, OD against ng/mL of antibody
[2] = target: T1, wild-type human alpha-synuclein; assay: SPR (Biacore), antibody captured on anti-human IgG chip, alpha-synuclein flowed over, 1:1 model global fit
Protocol: An anti-human IgG CMS Biacore chip was prepared following the protocol supplied by GE Healthcare.
Data were collected and double reference subtracted to account for drift and a small amount of nonspecific binding. The data were analyzed using Biacore evaluation software using a 1:1 model and a global fit.

Binder	binding result [1]	Kd [2] [nM]
humanized 5C1 antibody version H1L1 (antibody, V domains shown, Only variable regions are tied to this version) VH: QVQLVQSGAELKKPGSSVKVSCKASGYTFTNYWMNWVRQAPGQGLEWIGATNPNNGYTDYNQRFKDRATLTADKSTNTAYMELSSLRSEDTAVYYCARGGHLAYWGQGTLVTVSS VL: DVVMTQSPLSLSVSPGEPASISCRSSQSLFHSKGNTYLHWYLQKPGQSPKLLINRVSNRFSGVPDRFSGSGSGTDFTLKISRVEAEDVGVYFCSQSAHVPWTFGGGTKVEIK	no binding (tested: 1000 ng/mL)	
humanized 5C1 antibody version H5L4 (antibody, V domains shown, Only variable regions are tied to this version; also called h5C1_H5L4) VH: QVQLVQSGAELKKPGSSVKVSCKASGYTFTNYWMNWVRQAPGQGLEWIGATNPNNGYTDYNQRFKDRVTITADKSTNTAYMELSSLRSEDTAVYYCASGGHLAYWGQGTLVTVSS VL: DIVMTQSPLSLSVSPGEPASISCRSSQSLFHSKGNTYLHWYLQKPGQSPQLLIYRVSNRFSGVPDRFSGSGSGTDFTLKISRVEAEDVGVYYCSQSAHVPWTFGGGTKVEIK		1060
humanized 5C1 antibody version H4L4 (antibody, V domains shown, Only variable regions are tied to this version; also called h5C1_H4L4) VH: QVQLVQSGAELKKPGSSVKVSCKASGYTFTNYWMNWVRQAPGQGLEWIGATNPNNGYTDYNQRFKDRATLTADKSTNTAYMELSSLRSEDTAVYYCASGGHLAYWGQGTLVTVSS VL: DIVMTQSPLSLSVSPGEPASISCRSSQSLFHSKGNTYLHWYLQKPGQSPQLLIYRVSNRFSGVPDRFSGSGSGTDFTLKISRVEAEDVGVYYCSQSAHVPWTFGGGTKVEIK		601
humanized 5C1 antibody version H3L4 (antibody, V domains shown, Only variable regions are tied to this version; also called h5C1_H3L4) VH: QVQLVQSGAELKKPGSSVKVSCKASGYTFTNYWMNWVRQAPGQGLEWIGATNPNNGYTDYNQRFKDRATLTADKSTNTAYMELSSLRSEDTAVYFCASGGHLAYWGQGTLVTVSS VL: DIVMTQSPLSLSVSPGEPASISCRSSQSLFHSKGNTYLHWYLQKPGQSPQLLIYRVSNRFSGVPDRFSGSGSGTDFTLKISRVEAEDVGVYYCSQSAHVPWTFGGGTKVEIK		1240
